Values of other authors as cited in paper PMC11858487.

Target: EGFR (Homo sapiens) (UniProt P00533)

- Kd: 76.5 nM
Substance: [99mTc]Tc-SYPIPDT-ECG-TAMRA
